This note sets out measurements from patent US20250011363A1, “OPTIMIZED SHORTENED PEPTIDE THAT BINDS TO ACETYLCHOLINE RECEPTOR, AND USE THEREOF” (SKINMED CO., LTD., priority 2021, published 2025).

In the assay the target is acetylcholine receptor (Homo sapiens, UniProt P02708). The assay is described as follows: SPR binding affinity (RU) of optimized 5mer/6mer/7mer peptides, Examples 6-7. The following applies: SPR; for Binding affinity: peptides at 10 μM, 6mer-2 Bottom sequence; for Binding affinity, relative value to the RRQRR sequence: XRRQRR-6mer and RRQRRX-6mer. The gist of the method: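 Response units from SPR give the binding values listed. Each synthesized peptide was run at 10 μM over the receptor.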
On the technique in general: Surface plasmon resonance follows binding to a sensor surface in real time, without labels.

Chain of acetylcholine receptor (P02708 21-457): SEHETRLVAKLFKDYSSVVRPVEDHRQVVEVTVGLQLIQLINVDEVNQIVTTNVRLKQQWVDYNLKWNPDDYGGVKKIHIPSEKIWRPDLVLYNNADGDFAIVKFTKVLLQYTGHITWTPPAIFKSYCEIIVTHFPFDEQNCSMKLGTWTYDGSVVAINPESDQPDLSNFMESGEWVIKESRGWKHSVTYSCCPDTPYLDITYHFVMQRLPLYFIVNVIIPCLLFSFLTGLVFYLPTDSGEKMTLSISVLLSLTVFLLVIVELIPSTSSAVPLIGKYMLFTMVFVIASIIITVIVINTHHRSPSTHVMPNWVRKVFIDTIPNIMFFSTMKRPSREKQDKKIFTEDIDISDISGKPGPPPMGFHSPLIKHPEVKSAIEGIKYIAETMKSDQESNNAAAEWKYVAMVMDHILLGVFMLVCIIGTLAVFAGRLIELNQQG

In the case of 6mer-2-1114 (RKKFRK), the Binding affinity is reported as 34 Ru.
The same measure, in the same setting: under 6mer-2-1115 (KYSPRK) stands 39 Ru; under 6mer-2-1116 (KMEVKK), 31 Ru.
For the substance 6mer-2-1117 (RMHVKR), the Binding affinity worked out at 21 Ru.
As to 6mer-2-1118 (RFDGRR), the Binding affinity is recorded as 42 Ru.
Turning to 6mer-2-1119 (KCTVRK), the Binding affinity was 39 Ru.
6mer-2-1120 (RDMMKK): the Binding affinity is listed as 28 Ru.
With 6mer-2-1121 (KPSKRR), the Binding affinity came to 21 Ru.
Still for that read-out and setting: in the case of 6mer-2-1122 (RCNFKK) it was 22 Ru; in that of 6mer-2-1123 (RITARR), 36 Ru.
The same measure, in the same setting: under 6mer-2-1124 (RKTWRK) stands 39 Ru; under 6mer-2-1125 (RDAFKK), 30 Ru; under 6mer-2-1126 (RHEVRR), 23 Ru.
On the same count and under the same terms, under 6mer-2-1127 (KAAEKK) stands 42 Ru; under 6mer-2-1128 (KNCMRK), 36 Ru.
For 6mer-2-1129 (RITGKR), the Binding affinity turned out to be 42 Ru.
Same read-out and setting: in the case of 6mer-2-1130 (RHSFRK) it was 29 Ru; in that of 6mer-2-1131 (RTNAKR), 26 Ru; in that of 6mer-2-1132 (RPWERR), 32 Ru.
With 6mer-2-1133 (KMKMKK), the Binding affinity stood at 22 Ru.
On to 6mer-2-1134 (KYENRK), for which the Binding affinity came to 30 Ru.
On the same count and under the same terms, under 6mer-2-1135 (RANWKR) stands 29 Ru; under 6mer-2-1136 (KMKKKR), 36 Ru; under 6mer-2-1137 (RTDFKR), 22 Ru.
In the case of 6mer-2-1138 (KAHFKK), the Binding affinity is 42 Ru.
The same measure, in the same setting: under 6mer-2-1139 (KAKAKK) stands 39 Ru; under 6mer-2-1140 (KMNKKR), 29 Ru.
The same measure, in the same setting: in the case of 6mer-2-1141 (KCTGKR) it was 32 Ru; in that of 6mer-2-1142 (KKAMKR), 30 Ru.
With 6mer-2-1143 (KACIKK), the Binding affinity turned out to be 42 Ru.
6mer-2-1144 (RFEDRK): the Binding affinity is on record as 39 Ru.
The same measure, in the same setting: in the case of 6mer-2-1145 (RIKNRR) it was 23 Ru; in that of 6mer-2-1146 (REWGRK), 32 Ru; in that of 6mer-2-1147 (KFMKKK), 35 Ru.
Same read-out and setting: in the case of 6mer-2-1148 (KEKGKR) it was 34 Ru; in that of 6mer-2-1149 (KIDFRR), 21 Ru.
Turning to 6mer-2-1150 (KTDVKK), the Binding affinity is 42 Ru.
Same read-out and setting: in the case of 6mer-2-1151 (RYPVRK) it was 43 Ru; in that of 6mer-2-1152 (RNWAKK), 37 Ru; in that of 6mer-2-1153 (KHKPKR), 27 Ru.
Still for that read-out and setting: under 6mer-2-1154 (RYEARR) stands 30 Ru; under 6mer-2-1155 (RNTNRK), 25 Ru; under 6mer-2-1156 (KMNARR), 35 Ru.
The same measure, in the same setting: in the case of 6mer-2-1157 (RNTDRK) it was 37 Ru.
As for 6mer-2-1158 (RDNIRK), the Binding affinity was determined as 37 Ru.
Same read-out and setting: in the case of 6mer-2-1159 (KDMGKR) it was 40 Ru; in that of 6mer-2-1160 (RITVKK), 23 Ru.
Take 6mer-2-1161 (RHSFKK): the Binding affinity stood at 27 Ru.
Still for that read-out and setting: under 6mer-2-1162 (KMSERR) stands 34 Ru.
Still for that read-out and setting: under 6mer-2-1163 (KCHFKK) stands 37 Ru; under 6mer-2-1164 (RYNHKR), 33 Ru.
In the case of 6mer-2-1165 (RIKAKK), the Binding affinity is listed as 30 Ru.
Regarding 6mer-2-1166 (KCSIKK), the Binding affinity came out at 26 Ru.
Same read-out and setting: in the case of 6mer-2-1167 (RCAPKR) it was 27 Ru.
Still for that read-out and setting: in the case of 6mer-2-1168 (KMKPKK) it was 41 Ru; in that of 6mer-2-1169 (KICERK), 21 Ru.
As for 6mer-2-1170 (KFTIRR), the Binding affinity is reported as 25 Ru.
In the case of 6mer-2-1171 (KMPARR), the Binding affinity was determined as 40 Ru.
The same measure, in the same setting: under 6mer-2-1172 (KNCERR) stands 36 Ru.
Same read-out and setting: in the case of 6mer-2-1173 (KCCNKK) it was 38 Ru; in that of 6mer-2-1174 (RCEPRK), 21 Ru; in that of 6mer-2-1175 (RYSKRR), 34 Ru.
For the substance 6mer-2-1176 (RYTEKK), the Binding affinity was determined as 43 Ru.
As for 6mer-2-1177 (RASEKR), the Binding affinity was found to be 41 Ru.
Turning to 6mer-2-1178 (KTTVRK), the Binding affinity amounted to 30 Ru.
On the same count and under the same terms, in the case of 6mer-2-1179 (KACVKK) it was 34 Ru; in that of 6mer-2-1180 (RAANRR), 34 Ru; in that of 6mer-2-1181 (KACWKR), 32 Ru.
Same read-out and setting: in the case of 6mer-2-1182 (RHNDKR) it was 30 Ru.
On the same count and under the same terms, under 6mer-2-1183 (RENNRK) stands 35 Ru; under 6mer-2-1184 (KFWVRR), 22 Ru; under 6mer-2-1185 (RIDAKK), 42 Ru.
On to 6mer-2-1186 (KEKFRR), for which the Binding affinity is listed as 27 Ru.
Turning to 6mer-2-1187 (RTADRK), the Binding affinity is listed as 36 Ru.
Consider 6mer-2-1188 (RAPARR), for which the Binding affinity is listed as 22 Ru.
The same measure, in the same setting: in the case of 6mer-2-1189 (KTAPKK) it was 40 Ru; in that of 6mer-2-1190 (KACIRR), 32 Ru.
Same read-out and setting: under 6mer-2-1191 (KKADRK) stands 35 Ru; under 6mer-2-1192 (KHKNKR), 40 Ru; under 6mer-2-1193 (REKIRR), 43 Ru.
Still for that read-out and setting: in the case of 6mer-2-1194 (KYCDRK) it was 35 Ru; in that of 6mer-2-1195 (KMTERK), 25 Ru.
With 6mer-2-1196 (RESKKR), the Binding affinity was 39 Ru.
Still for that read-out and setting: under 6mer-2-1197 (KNCIKK) stands 23 Ru.
Same read-out and setting: in the case of 6mer-2-1198 (RMSHRR) it was 27 Ru; in that of 6mer-2-1199 (RCTNKR), 27 Ru.
Still for that read-out and setting: in the case of 6mer-2-1200 (RHHNRR) it was 30 Ru.
With 3601 (GRRQRR) [compound 3601], the “Binding affinity, relative value to the RRQRR sequence” value (from here on “Binding affinity, relative value”) turned out to be 132.
The same measure, in the same setting: in the case of 3602 (ARRQRR) [compound 3602] it was 129; in that of 3603 (VRRQRR) [compound 3603], 135.
Still for that read-out and setting: in the case of 3604 (CRRQRR) [compound 3604] it was 123; in that of 3605 (PRRQRR) [compound 3605], 133.
As for 3606 (LRRQRR) [compound 3606], the “Binding affinity, relative value” value is 144.
As to 3607 (IRRQRR) [compound 3607], the “Binding affinity, relative value” value came out at 121.
On the same count and under the same terms, in the case of 3608 (MRRQRR) [compound 3608] it was 119; in that of 3609 (WRRQRR) [compound 3609], 138; in that of 3610 (FRRQRR) [compound 3610], 143.
Same read-out and setting: under 3611 (SRRQRR) [compound 3611] stands 121; under 3612 (TRRQRR) [compound 3612], 103.
The same measure, in the same setting: under 3613 (YRRQRR) [compound 3613] stands 130; under 3614 (NRRQRR) [compound 3614], 113; under 3615 (QRRQRR) [compound 3615], 105.
On to 3616 (KRRQRR) [compound 3616], for which the “Binding affinity, relative value” value is listed as 173.
On the same count and under the same terms, in the case of 3617 (RRRQRR) [compound 3617] it was 189; in that of 3618 (HRRQRR) [compound 3618], 164.
On the same count and under the same terms, in the case of 3619 (DRRQRR) [compound 3619] it was 163.
Same read-out and setting: under 3620 (ERRQRR) [compound 3620] stands 147.
Take 3621 (RRQRRG) [compound 3621]: the “Binding affinity, relative value” value is 109.
The same measure, in the same setting: in the case of 3622 (RRQRRA) [compound 3622] it was 113; in that of 3623 (RRQRRV) [compound 3623], 120.
On to 3624 (RRQRRC) [compound 3624], for which the “Binding affinity, relative value” value is on record as 126.
As for 3625 (RRQRRP) [compound 3625], the “Binding affinity, relative value” value worked out at 137.
The same measure, in the same setting: in the case of 3626 (RRQRRL) [compound 3626] it was 141; in that of 3627 (RRQRRI) [compound 3627], 133.
With 3628 (RRQRRM) [compound 3628], the “Binding affinity, relative value” value turned out to be 122.
On the same count and under the same terms, in the case of 3629 (RRQRRW) [compound 3629] it was 129; in that of 3630 (RRQRRF) [compound 3630], 132; in that of 3631 (RRQRRS) [compound 3631], 113.
With 3632 (RRQRRT) [compound 3632], the “Binding affinity, relative value” value came to 117.
